Data set [1] has as its target human BCL10 (full length), GST-tag removed (human) (UniProt O95999). In words: cryo-EM structure; helical filaments of BCL10 (full length)-MALT1 (T29-G722); complex at 1 mg/ml, PreScission protease overnight at 12 °C, filaments separated by SEC; core map at 4.9 Å, whole assembly at 5.9 Å.
Data set [2] concerns the molecule itself. The data set is described as above.

As usually defined, the stoichiometry N is the number of molecules, sites or subunits per partner or assembly.

Take “human MALT1 isoform B (T29-G722), in the filament sample after PreScission treatment (domain or fragment)”: the stoichiometry N in data set [1] came out at 1.

B1: human BCL10 (full length), GST-tag removed (natural protein, UniProt O95999 1-233, looked up)
chain: MEPTAPSLTEEDLTEVKKDALENLRVYLCEKIIAERHFDHLRAKKILSREDTEEISCRTSSRKRAGKLLDYLQENPKGLDTLVESIRREKTQNFLIQKITDEVLKLRNIKLEHLKGLKCSSCEPFPDGATNNLSRSNSDESNFSEKLRASTVMYHPEGESSTTPFFSTNSSLNLPVLEVGRTENTIFSSTTLPRPGDPGAPPLPPDLQLEEEGTCANSSEMFLPLRSRTVSRQ
notes: BCL10 (B cell lymphoma 10), human, full length; Forms helical filaments together with MALT1 (T29-G722); only residues 10-115 are modelled in the map; also called B cell lymphoma 10; BCL10 wt; not shown: GST, N-terminal, cleaved
Turning to B1, in data set [2], the binding result is on record as “binds”.

(Values after paper PMC6168461, “Molecular architecture and regulation of BCL10-MALT1 filaments” (Nature Communications, 2018).)
